The target in this assay is pyruvate kinase isozyme M2 (mouse (endogenous in splenic CD4+ T cells polarized into Th17 cells)) (UniProt P52480). As to the kind of experiment: cross-linking; Th17 cells treated with or without HCA for 24 h; cells washed with ice-cold PBS pH 8.0, disuccinimidyl suberate at 1 uM for 30 min at room temperature, quenched with 10 mM Tris, lysed, Western blot for monomeric and tetrameric PKM2. Background: A western blot detects proteins with antibodies after separation by electrophoresis.

Chain of pyruvate kinase isozyme M2, P52480 1-531 (enzyme; other documents disagree on this pair) (P52480 whole entry): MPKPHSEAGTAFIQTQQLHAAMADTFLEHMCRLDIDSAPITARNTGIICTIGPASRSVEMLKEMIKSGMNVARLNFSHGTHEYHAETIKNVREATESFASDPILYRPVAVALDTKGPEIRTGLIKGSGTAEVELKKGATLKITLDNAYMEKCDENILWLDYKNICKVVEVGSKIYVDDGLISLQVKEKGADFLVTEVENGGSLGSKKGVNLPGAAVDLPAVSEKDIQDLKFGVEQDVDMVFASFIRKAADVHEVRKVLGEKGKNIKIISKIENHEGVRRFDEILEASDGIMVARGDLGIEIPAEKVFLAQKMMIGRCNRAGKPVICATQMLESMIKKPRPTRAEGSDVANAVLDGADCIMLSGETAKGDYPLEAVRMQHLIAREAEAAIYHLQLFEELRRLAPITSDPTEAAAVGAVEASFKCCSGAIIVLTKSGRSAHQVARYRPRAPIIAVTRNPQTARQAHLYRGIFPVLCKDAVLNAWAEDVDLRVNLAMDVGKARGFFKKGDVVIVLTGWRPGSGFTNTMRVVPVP

Usually stoichiometry N stands for the number of molecules, sites or subunits per partner or assembly. Take “pyruvate kinase isozyme M2, P52480 1-531 (enzyme; other documents disagree on this pair)”: the stoichiometry N is 4.

Source of the values: publication PMC8178393.
